Our source for the protein production values is a protein production outcome set (Wang et al. 2014).

A short description of this data set: label from the status in PepcDB records.
With “MSLKVQGYANVVTLPNVTGRVIIVGDIHGCRAQLEDLLRAVSFKQGSDTLVAVGDLVNKGPDSFGVVRLLKRLGAYSVLGNHDAKLLKLVKKLGKKECLKGRDAKSSLAPLAQSIPTDVETYLSQLPHIIRIPAHNVMVAHAGLHPQRPVDRQYEDEVTTMRNLIEKEQEATGGVTLTATEETNDGGKPWASMWRGPETVVFGHDARRGLQEQYKPLAIGLDSRCVYGGRLSAAVFPGGCIISVPGWNGASAAAEGHHHHHH”, the protein production entry is listed as “not failed”. Take “AQGVGVEAILLLRRECQASHEDALHLGLAEHAPVIELQTLRKLDGQAVSLIFHRYSAVYHELLADYQGGSVRQYLAECGLPLSRAQSLIGARLPSREEAGLLLMPRHMPALTVLTVSCDGAGQPVELSRSVSRSDRFQ”: the protein production result was “failed”.

On to “MVDWSTLPKDLLDLISKSLESSFDLIQFRSVCSSWRSAAEPKSPLPTHHLPILPDNGGSLFPDSAVGFRLSQRSILLIKPHEPCIESDSFGWLIKVEEDLNVPRKVTLLDPLCDTRNSIPENFPRVLDMSKFKVRELGREFKLHYFNTVGDIVESLYLEKAVVKYLDCDGDYKFVLLTIHVSGKLAVFRSWDRAWTVINDMPSPYDDVMLFDGRFFAVDNNGRTVVVDYSSLKLTLVASPVFGGDKKFLIESCGEMLLVDMYLSLEAVEGDPGFVEEIFEHPAFYMNERTVKFKVYRFVEREESWVDVYDLEDKMLFLGDDSTFSASASDILPLCDGSSVFFNGNVFNGEDLGAMQDRDLGVFDFRSGKIELVQKLPEYAKLFWPPPPWITSHARAEDHIGETSSQS”, for which the protein production entry was “failed”. As for “MNCGRIRSLLQGGEATAGPVIYWMSRDQRVADNWALIHAQKLALARSAPLGVLFCLAPRFLGATARQYRFMLKGLEQVRAALNRLDIPFFLVTGDPKGAVAAFTRRHRVSYLVTDFDPLRVKREWKRQVAGEISIPFDEVDAHNIVPCWITSQRQEWGAYTIRPKIHRLLPDFMEPFPPLQRHPFPWQGALPSDAEWRETFTGMTLDESVPEVSWLASGEEAAQAALARFLEDGLAGYATRRNNPAVMGQSGLSPWLHFGQLSAQRVAQAAFAAAAPIESRDAFLEELIVRRELADNFCYYNDAYDRFDGFPEWAQRTLNRHRHDPRPQCYEHDVLEQGQTHDSLWNAAQLEMVRWGRMHGYLRMYWAKKLLEWTSSPEDALMIAIQLNDRYQLDGRDPNGYAGIAWSIGGVHDRPWAERPVFGTIRFMSRDGCRRKFDTDAYERRVIISPATCAGIALCK”, the entry is “failed”; as for “MKTLQTHRVLQALIGHFTPFLESGITELMINTEQELWLYKVNNTREKRGHALFDKAFLLRFCEQLASFRGLFFDEEHPTLNCSIPFTRYRVSANHFSITTNNQITLNIRVPRLKPLSLEDFTFKASDPKSLKDLALKGHNILISGETSSGKTSLLNALLDCVNKDERVVSVEDSQELDLKAFSNCVGLLVGKQENTRFNYEDALNMAMRLNPDRLIVGEIDTRNAALFLRLGNTGHKGMLSTIHANSAQNTLEALSLNLSMRYMYSLDKDLMRAYFKSAIDVIVHVNRINNERQIAEVLWTKEL”, “failed”. On to “MPPMHELTIEGLGPCEVEEGTRLVRAIEDCGAAVGHRCGGQSQCTTCRVEFAAGEPPVMTEAEYDKLTDIGRLGEMRLACQIVVDRDMTLTPLMTVEDQGWDDAGPEPALMVEPDAEWFSIETLEQR”, for which the protein production result is “failed”. The value for “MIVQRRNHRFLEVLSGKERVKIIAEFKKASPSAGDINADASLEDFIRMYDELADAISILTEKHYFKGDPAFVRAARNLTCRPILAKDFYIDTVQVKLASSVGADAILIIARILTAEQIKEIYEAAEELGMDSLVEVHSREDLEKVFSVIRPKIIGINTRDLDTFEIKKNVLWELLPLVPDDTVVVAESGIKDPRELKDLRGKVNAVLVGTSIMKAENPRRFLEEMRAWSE” was “not failed”; that for “MTHTTANQVIHYVDQDGNTVFDDNDSQTLDYERSVTIDEVTGEITAYGDWKAVDGDEFGSVTSSDKPGYAIDKPVVSGEKPTITNGKDGKVSDVEVTVTYTALEHHHHHH” was “not failed”; that for “MEGIDMLDIKLIRENPELVKNDLIKRGELEKVKWVDEILKLDTEWRTKLKEINRLRHERNKIAVEIGKRRKKGEPVDELLAKSREIVKRIGELENEVEELKKKIDYYLWRLPNITHPSVPVGKDENDNVPIRFWGKARVWKGHLERFLEQSQGKMEYEILEWKPKLHVDLLEILGGADFARAAKVSGSRFYYLLNEIVILDLALIRFALDRLIEKGFTPVIPPYMVRRFVEEGSTSFEDFEDVIYKVEDEDLYLIPTAEHPLAGMHANEILDGKDLPLLYVGVSPCFRKEAGTAGKDTKGIFRVHQFHKVEQFVYSRPEESWEWHEKIIRNAEELFQELEIPYRVVNICTGDLGYVAAKKYDIEAWMPGQGKFREVVSASNCTDWQARRLNIRFRDRTDEKPRYVHTLNSTAIATSRAIVAILENHQEEDGTVRIPKVLWKYTGFKEIVPVEKKERCCAT” was “not failed”.

For the sequence “PATCPIVPGQEMIIEISKGRSGLGLSIVGGKDTPLNAIVIHEVYEEGAAARDGRLWAGDQILEVNGVDLRNSSHEEAITALRQTPQKVRLVVYRDEAHYRDEE”, the protein production entry is listed as “not failed”. As for “MSSRTRARGSKRAAGVHTVSIPRQRGRRRAQPFVIVFPESPSLTREALGFIGRALWKGRRALAPTALALLAFAVTGLLHVMAWWSSLILAPLAAGPLVWLAVMQVRRPGRGAVVLWRAGLALLATFTAAWAALAAGFGPLAGPLDLVWLLMWIAAQTAWLFVRRSH”, the entry is “failed”; as for “MEKLGQFIINHWQLWLAFVVVVFLIFINEILSQRKKAKEVSPQSLVDLMNNGNAIVIDIRDKESFKNGHIINSMNVNPDDFEQQKMSKYKDKPIILVCARGLQSPTLAMKIRNQGYQPLVLSGGIQAWQNADLPLVKGK”, “failed”. As for “MNIEKTRFCINRKIAPGLSIEAFFRLVKRLEFNKVELRNDMPSGSVTDDLNYNQVRNLAEKYGLEIVTINAVYPFNQLTEEVVKKTEGLLRDAQGVGARALVLCPLNDGTIVPPEVTVEAIKRLSDLFARYDIQGLVEPLGFRVSSLRSAVWAQQLIREAGSPFKVLLDTFHHHLYEEAEKEFASRIDISAIGLVHLSGVEDTRPTEALADEQRIMLSEKDVMQNYQQVQRLENMGYRGIYAFEPFSSQLASWSEAEIEEQINRSVSLLLQ”, the entry is “not failed”. As for “MGVDMELKVEASLREARTLLAAKQYSQAANVAHSLFCTCHKFNLQIEKASVLLLLAEIHKKSGNAVLGLPYALASISFCQSFNLDLLKASATLTLAELWLGLGSNHTKRALDLLHGAFPMILGHGGLELRARAYIFEANCYLSDPSSSVSTDSDTVLDSLRQASDELQALEYHELAAEASYLMAMVYDKLGRLDEREEAASLFKKHIIALENPQDVEQNMA”, the entry is “failed”; as for “MAFIAVHDGLTGLHNRTFLTDHFDTLIKGAHRRRERLAVVQLDLDRFKQINDTLGHAAGDYVLVVTAQRMRDSCRASDLCARLGGDEFVMILNGAGSTEDINMLARRILAHINEPIVFQGTTILPGASGGIAVYPIDADNAQDLLVHADLALYSAKKLGGGNFSFFSEELRRELDYRKQLEHDIKVAISERAFQVYFQPQVSLTDGTISGIEALVRWNHHERGMISPGEFIPVAEKCGFMPEIGRIVIGKAINEAAEWNRAGIAFGRLAVNVSGTELREHDFDAFLFETLEKAGLPPQKLSLEIVESVILDDEKTGIAAKLRHIRAAGIHLELDDFGTGYASLSHVNPNEIDRLKIDRRFVQNIHENGDNSKIVRAITELARGLGISIVAEGAETEAELDSLMAIGCDQVQGYSIAFPMPQDKALEWLTARMPKKAKLRVLQGSLA”, “failed”. As for “MLRKNILAYYGANFLLIIAQSLPHAILTPLLLSKGLSLSEILLVQTFFSFCVLVAEYPSGVLADLMSRKNLFLVSNAFLIASFSFVLFFDSFIFMLLAWGLYGLYSACSSGTIEASLITDIKENKKDLSKFLAKNNQITYLGMIIGSSLGSFLYLKVHAMLYIVGIFLIMLCVLTIIFYFKEKEGDFKSQKSLKLLKEQVKGSLKELKDNPKLKILLVGHLITPVFFMSHFQMWQAYFLKQGVKEQYLFVFYIAFQVISILIHFLKASSYSQKIALSSLVVLLGVSPLLLSNIPYCFIGVYALMVAFFTYMSYCLNYQFSKFVSKNNISSLSSLLSSCVRVVSVLILSLSSLELRYFSPLTIITMHFALTLIILFFFLYKAKPFDE”, the protein production entry was “failed”. For the sequence “LLARALYDNCPDCSDELAFSRGDILTILEQHVPESEGWWKCLLHGRQGLAPANRLQIL”, the protein production entry is recorded as “not failed”.
